Data on 1 substance can be found in patent US20060009393A1, “Immunogenic epitopes for fibroblast growth factors 5 (FGF-5)” (The Government of the U.S.A as represented by the Secretary …, priority 1999, published 2006).

The assay deals with HLA-A3 on the autologous RCC cell line (human). Briefly: cell-based or functional assay.

Take “W6/32 (pan-anti-class I MHC mAb) (antibody)”: the inhibition of IFN-γ release by Clone 2 CTL against autologous tumor, mAb at 20 µg/ml is over 75%.
